Values of other authors in paper PMC10130511.
Like-named read-outs stand apart in the source and are kept apart here.

Key:
IP3R [1] = target: IP3R (UniProt P29994)
IP3R [2] = target: IP3R (UniProt P29994); remark: listed apart in the source
IP3R [3] = target: IP3R (UniProt P29994); remark: listed apart in the source

Chain of UniProt P29994 (P29994 whole entry): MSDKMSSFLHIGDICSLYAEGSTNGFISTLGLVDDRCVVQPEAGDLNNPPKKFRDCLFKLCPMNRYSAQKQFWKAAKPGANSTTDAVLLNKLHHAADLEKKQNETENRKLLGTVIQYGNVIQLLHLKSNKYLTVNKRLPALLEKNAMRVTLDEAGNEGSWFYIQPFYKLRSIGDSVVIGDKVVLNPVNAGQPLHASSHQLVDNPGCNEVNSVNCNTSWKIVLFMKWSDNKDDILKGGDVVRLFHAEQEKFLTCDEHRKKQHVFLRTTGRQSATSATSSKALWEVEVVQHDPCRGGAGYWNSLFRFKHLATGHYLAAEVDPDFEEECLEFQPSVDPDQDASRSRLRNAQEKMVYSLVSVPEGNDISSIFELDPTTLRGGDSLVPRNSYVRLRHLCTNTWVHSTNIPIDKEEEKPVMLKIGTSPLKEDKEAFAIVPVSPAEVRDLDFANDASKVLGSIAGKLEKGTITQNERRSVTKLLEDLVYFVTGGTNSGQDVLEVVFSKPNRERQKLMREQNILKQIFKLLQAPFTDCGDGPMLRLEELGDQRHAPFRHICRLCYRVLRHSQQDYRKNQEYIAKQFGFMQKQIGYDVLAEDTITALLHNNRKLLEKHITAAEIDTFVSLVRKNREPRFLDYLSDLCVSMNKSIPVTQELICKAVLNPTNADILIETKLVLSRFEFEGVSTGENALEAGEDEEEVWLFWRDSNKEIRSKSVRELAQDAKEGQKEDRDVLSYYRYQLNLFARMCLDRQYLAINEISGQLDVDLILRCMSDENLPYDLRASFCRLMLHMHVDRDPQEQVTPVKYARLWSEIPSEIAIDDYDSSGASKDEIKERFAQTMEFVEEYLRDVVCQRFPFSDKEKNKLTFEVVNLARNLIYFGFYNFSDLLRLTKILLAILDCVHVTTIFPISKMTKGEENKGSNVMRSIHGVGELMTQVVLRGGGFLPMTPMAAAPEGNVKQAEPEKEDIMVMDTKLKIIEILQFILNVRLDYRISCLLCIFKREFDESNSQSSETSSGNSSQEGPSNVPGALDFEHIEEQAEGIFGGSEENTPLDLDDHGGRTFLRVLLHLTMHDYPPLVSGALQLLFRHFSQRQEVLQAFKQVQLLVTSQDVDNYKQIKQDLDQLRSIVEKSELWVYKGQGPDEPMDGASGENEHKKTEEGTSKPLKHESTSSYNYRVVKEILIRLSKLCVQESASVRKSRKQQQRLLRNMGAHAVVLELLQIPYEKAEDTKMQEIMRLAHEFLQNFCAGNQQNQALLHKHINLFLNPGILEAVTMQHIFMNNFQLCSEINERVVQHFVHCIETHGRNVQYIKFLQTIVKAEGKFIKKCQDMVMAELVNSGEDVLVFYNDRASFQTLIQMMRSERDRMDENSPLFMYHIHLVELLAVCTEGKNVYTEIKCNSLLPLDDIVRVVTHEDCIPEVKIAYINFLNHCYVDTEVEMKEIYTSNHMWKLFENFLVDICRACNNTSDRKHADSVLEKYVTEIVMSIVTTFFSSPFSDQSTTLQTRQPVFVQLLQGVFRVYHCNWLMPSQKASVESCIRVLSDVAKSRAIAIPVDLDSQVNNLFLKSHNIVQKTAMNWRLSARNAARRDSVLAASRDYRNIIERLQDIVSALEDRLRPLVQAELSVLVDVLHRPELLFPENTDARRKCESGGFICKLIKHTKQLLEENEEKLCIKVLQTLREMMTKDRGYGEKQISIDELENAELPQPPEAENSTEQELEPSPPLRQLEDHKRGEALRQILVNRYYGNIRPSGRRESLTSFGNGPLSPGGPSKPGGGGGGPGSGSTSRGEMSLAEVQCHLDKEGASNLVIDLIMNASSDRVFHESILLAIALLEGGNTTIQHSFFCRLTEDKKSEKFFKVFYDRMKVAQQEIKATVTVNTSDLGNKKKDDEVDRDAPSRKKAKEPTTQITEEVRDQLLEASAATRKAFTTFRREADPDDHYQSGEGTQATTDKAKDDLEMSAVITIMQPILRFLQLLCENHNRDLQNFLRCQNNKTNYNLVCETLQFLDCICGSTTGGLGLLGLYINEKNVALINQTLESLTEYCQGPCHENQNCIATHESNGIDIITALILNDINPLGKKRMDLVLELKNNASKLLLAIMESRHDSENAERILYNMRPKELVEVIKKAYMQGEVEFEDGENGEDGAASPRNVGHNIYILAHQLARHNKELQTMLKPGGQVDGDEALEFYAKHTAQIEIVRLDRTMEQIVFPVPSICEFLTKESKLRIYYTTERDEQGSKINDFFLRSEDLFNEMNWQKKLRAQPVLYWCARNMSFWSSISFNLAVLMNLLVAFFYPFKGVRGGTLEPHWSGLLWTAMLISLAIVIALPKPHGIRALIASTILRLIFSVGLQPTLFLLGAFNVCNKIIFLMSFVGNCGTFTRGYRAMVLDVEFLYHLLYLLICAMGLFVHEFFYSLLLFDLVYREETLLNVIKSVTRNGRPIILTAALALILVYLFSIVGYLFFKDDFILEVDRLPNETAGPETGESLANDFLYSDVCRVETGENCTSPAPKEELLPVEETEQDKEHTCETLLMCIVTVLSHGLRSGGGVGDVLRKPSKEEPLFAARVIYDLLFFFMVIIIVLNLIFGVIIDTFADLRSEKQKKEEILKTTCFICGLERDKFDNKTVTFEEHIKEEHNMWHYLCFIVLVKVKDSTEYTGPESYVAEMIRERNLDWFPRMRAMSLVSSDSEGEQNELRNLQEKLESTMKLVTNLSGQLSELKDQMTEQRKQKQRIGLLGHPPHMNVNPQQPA

## Bcl-2 (from UniProt P10415)
IP3R [1]
  Kd: 1000 nM

## Bok (from UniProt Q9UMX3)
IP3R [2]
  Kd: 65 nM

## Bcl-xL (from UniProt Q07817)
IP3R [3]
  Kd: 700 nM
